Results on 125 sequences are retold here after the supplement of paper PMC9112550, “Optimization of the antimicrobial peptide Bac7 by deep mutational scanning” (BMC Biology, 2022).

This data set relates to Escherichia coli TOP10. The data set is described as follows: shrunken log2 fold change of peptide-encoding DNA abundance (4.5 h post-induction vs induction); higher = less antimicrobial activity (less host growth inhibition). The following applies: time post-induction: 4.5 h; library: site-saturation at positions 5, 18, 19, 20.
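Note: peptides expressed intracellularly from a pBAD plasmid library in pooled LB shake-flask culture, induced with 0.3% L-arabinose, DNA abundance read by NGS, three biological replicates, DESeq2 with apeglm shrinkage.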

In the case of RRIRGRPPRLPRPRPRPGRLPRP, the “shrunken log2 fold change” value came to 0.706. With RRIRCRPPRLPRPRPRPDSLPRP, the “shrunken log2 fold change” value was -0.0818. With RRIRLRPPRLPRPRPRPIKLPRP the figure was -0.515.

RRIRRRPPRLPRPRPRPCYTPRP: the “shrunken log2 fold change” value is -0.112. For RRIRYRPPRLPRPRPRPQTFPRP the value was -0.459. As to RRIRNRPPRLPRPRPRPITRPRP, the “shrunken log2 fold change” value was -0.0765.

Consider RRIRHRPPRLPRPRPRPACMPRP, for which the “shrunken log2 fold change” value turned out to be 0.0463. With RRIRKRPPRLPRPRPRPTAKPRP, the “shrunken log2 fold change” value was 0.00802.

On to RRIRFRPPRLPRPRPRPENKPRP, for which the “shrunken log2 fold change” value was -0.422. As for RRIRRRPPRLPRPRPRPDFYPRP, the “shrunken log2 fold change” value was found to be 0.159. On to RRIRGRPPRLPRPRPRPTYLPRP, for which the “shrunken log2 fold change” value was 0.132.

As for RRIRPRPPRLPRPRPRPSQEPRP, the “shrunken log2 fold change” value is -0.199. As for RRIRGRPPRLPRPRPRPVKKPRP, the “shrunken log2 fold change” value came out at 0.949.

In the case of RRIRQRPPRLPRPRPRPLISPRP, the “shrunken log2 fold change” value is -0.173.

Take RRIRSRPPRLPRPRPRPCGIPRP: the “shrunken log2 fold change” value was -0.0619. With RRIRCRPPRLPRPRPRPYFGPRP the figure was -0.0436.

As for RRIRFRPPRLPRPRPRPDVDPRP, the “shrunken log2 fold change” value amounted to 0.0167. Turning to RRIRLRPPRLPRPRPRPGETPRP, the “shrunken log2 fold change” value was -0.0544. Regarding RRIRDRPPRLPRPRPRPYWYPRP, the “shrunken log2 fold change” value amounted to 0.00534.

Consider RRIRQRPPRLPRPRPRPVVKPRP, for which the “shrunken log2 fold change” value was -0.031. Consider RRIRCRPPRLPRPRPRPKKTPRP, for which the “shrunken log2 fold change” value is -0.142. Regarding RRIRLRPPRLPRPRPRPWSIPRP, the “shrunken log2 fold change” value is -0.0808. On to RRIRHRPPRLPRPRPRPPLSPRP, for which the “shrunken log2 fold change” value is -0.0738. In the case of RRIRTRPPRLPRPRPRPKIEPRP, the “shrunken log2 fold change” value is -0.00653. With RRIRNRPPRLPRPRPRPCWIPRP, the “shrunken log2 fold change” value is -0.00906.

For RRIRTRPPRLPRPRPRPNKKPRP, the “shrunken log2 fold change” value is -0.26. Regarding RRIRPRPPRLPRPRPRPSMKPRP, the “shrunken log2 fold change” value is -0.223.

In the case of RRIRYRPPRLPRPRPRPHRPPRP, the “shrunken log2 fold change” value worked out at 0.0424.

For the sequence RRIRERPPRLPRPRPRPQVEPRP, the “shrunken log2 fold change” value was 0.0218. For RRIRCRPPRLPRPRPRPDCFPRP the value was 0.182. With RRIRYRPPRLPRPRPRPDHDPRP the figure was -0.133; with RRIRLRPPRLPRPRPRPCCWPRP, 0.41.

Regarding RRIRERPPRLPRPRPRPAMDPRP, the “shrunken log2 fold change” value stood at 0.283. With RRIRCRPPRLPRPRPRPFGRPRP the figure was -0.207; with RRIRKRPPRLPRPRPRPPMCPRP, 0.389; with RRIRGRPPRLPRPRPRPMHTPRP, 1.25. Consider RRIRGRPPRLPRPRPRPLPEPRP, for which the “shrunken log2 fold change” value came to 0.884. As to RRIRARPPRLPRPRPRPCSQPRP, the “shrunken log2 fold change” value is -0.172. Consider RRIRGRPPRLPRPRPRPETQPRP, for which the “shrunken log2 fold change” value was 2.49. In the case of RRIRWRPPRLPRPRPRPLPCPRP, the “shrunken log2 fold change” value was 0.118. For RRIRCRPPRLPRPRPRPMYKPRP, the “shrunken log2 fold change” value is -0.471.

On to RRIRARPPRLPRPRPRPYRWPRP, for which the “shrunken log2 fold change” value came out at 0.0451.

Turning to RRIRWRPPRLPRPRPRPLYLPRP, the “shrunken log2 fold change” value was -0.5. Turning to RRIRMRPPRLPRPRPRPGNCPRP, the “shrunken log2 fold change” value came to 0.0879. For the sequence RRIRGRPPRLPRPRPRPSPQPRP, the “shrunken log2 fold change” value was 0.826. With RRIRWRPPRLPRPRPRPTNCPRP, the “shrunken log2 fold change” value is -0.0666.

As to RRIRPRPPRLPRPRPRPGCTPRP, the “shrunken log2 fold change” value amounted to 0.104. On to RRIRERPPRLPRPRPRPTYQPRP, for which the “shrunken log2 fold change” value was -0.136. RRIRRRPPRLPRPRPRPYPPPRP: the “shrunken log2 fold change” value is -0.176. With RRIRARPPRLPRPRPRPCDPPRP, the “shrunken log2 fold change” value was -0.106. Regarding RRIRSRPPRLPRPRPRPGPCPRP, the “shrunken log2 fold change” value came out at 0.0781. For RRIRFRPPRLPRPRPRPCQKPRP the value was 0.033; for RRIRMRPPRLPRPRPRPLAPPRP, 0.735.

For the sequence RRIRGRPPRLPRPRPRPIMHPRP, the “shrunken log2 fold change” value was 0.341. On to RRIRGRPPRLPRPRPRPKFIPRP, for which the “shrunken log2 fold change” value is -0.425. Turning to RRIRIRPPRLPRPRPRPRLSPRP, the “shrunken log2 fold change” value is -0.325. For RRIRVRPPRLPRPRPRPAVMPRP the value was -0.0705; for RRIRQRPPRLPRPRPRPGSEPRP, 0.0985; for RRIRYRPPRLPRPRPRPNQKPRP, -0.0988. In the case of RRIRDRPPRLPRPRPRPRIGPRP, the “shrunken log2 fold change” value was -0.00724. On to RRIRRRPPRLPRPRPRPVPSPRP, for which the “shrunken log2 fold change” value was 0.488. As to RRIRARPPRLPRPRPRPHILPRP, the “shrunken log2 fold change” value was -0.207. As for RRIRGRPPRLPRPRPRPHKHPRP, the “shrunken log2 fold change” value was 0.0984. For RRIRIRPPRLPRPRPRPAIVPRP the value was -0.135; for RRIRTRPPRLPRPRPRPYPPPRP, -0.203. Consider RRIRQRPPRLPRPRPRPVRNPRP, for which the “shrunken log2 fold change” value is -0.0556.

RRIRPRPPRLPRPRPRPMANPRP: the “shrunken log2 fold change” value was 1.35. Take RRIRFRPPRLPRPRPRPVELPRP: the “shrunken log2 fold change” value is -0.00737. With RRIRARPPRLPRPRPRPRHMPRP the figure was -0.00102; with RRIRDRPPRLPRPRPRPYKPPRP, -0.0448; with RRIRARPPRLPRPRPRPFQTPRP, -0.0176. For RRIRRRPPRLPRPRPRPILSPRP the value was 0.246; for RRIRPRPPRLPRPRPRPRCHPRP, 0.144.

Consider RRIRQRPPRLPRPRPRPKAVPRP, for which the “shrunken log2 fold change” value was -0.00151. As to RRIRLRPPRLPRPRPRPCDGPRP, the “shrunken log2 fold change” value is -0.181.

For the sequence RRIRMRPPRLPRPRPRPMRRPRP, the “shrunken log2 fold change” value came out at 0.487. In the case of RRIRVRPPRLPRPRPRPHYGPRP, the “shrunken log2 fold change” value was -0.0301. With RRIRNRPPRLPRPRPRPNLEPRP the figure was 0.0441. Consider RRIRMRPPRLPRPRPRPSDCPRP, for which the “shrunken log2 fold change” value is 0.206. RRIRVRPPRLPRPRPRPPKAPRP: the “shrunken log2 fold change” value turned out to be 0.077.

With RRIRDRPPRLPRPRPRPIQNPRP, the “shrunken log2 fold change” value amounted to 0.0608.

As for RRIRSRPPRLPRPRPRPMCSPRP, the “shrunken log2 fold change” value is -0.0814. Consider RRIRKRPPRLPRPRPRPIFVPRP, for which the “shrunken log2 fold change” value worked out at 0.471. Take RRIRLRPPRLPRPRPRPMYWPRP: the “shrunken log2 fold change” value was -0.115. For RRIRRRPPRLPRPRPRPVRSPRP, the “shrunken log2 fold change” value was found to be 0.551. RRIRHRPPRLPRPRPRPINWPRP: the “shrunken log2 fold change” value is -0.35. In the case of RRIRTRPPRLPRPRPRPNERPRP, the “shrunken log2 fold change” value was -0.0561. Consider RRIRKRPPRLPRPRPRPNPQPRP, for which the “shrunken log2 fold change” value turned out to be 0.463. With RRIRIRPPRLPRPRPRPPPFPRP, the “shrunken log2 fold change” value amounted to 0.481.

In the case of RRIRNRPPRLPRPRPRPITIPRP, the “shrunken log2 fold change” value is -0.366. For RRIRYRPPRLPRPRPRPFSAPRP, the “shrunken log2 fold change” value is -1.07. For the sequence RRIRPRPPRLPRPRPRPKSNPRP, the “shrunken log2 fold change” value was -0.37.

For RRIRRRPPRLPRPRPRPQTPPRP, the “shrunken log2 fold change” value stood at 0.881.

As for RRIRQRPPRLPRPRPRPYINPRP, the “shrunken log2 fold change” value was -0.299. Regarding RRIRWRPPRLPRPRPRPIRAPRP, the “shrunken log2 fold change” value was -0.0266.

Regarding RRIRKRPPRLPRPRPRPFRLPRP, the “shrunken log2 fold change” value is 0.0113. On to RRIRQRPPRLPRPRPRPWLAPRP, for which the “shrunken log2 fold change” value stood at 0.136.

With RRIRIRPPRLPRPRPRPCPMPRP, the “shrunken log2 fold change” value was -0.367. Regarding RRIRVRPPRLPRPRPRPRSLPRP, the “shrunken log2 fold change” value was -0.116. For the sequence RRIRIRPPRLPRPRPRPIKMPRP, the “shrunken log2 fold change” value is -0.177.

With RRIRCRPPRLPRPRPRPVRKPRP, the “shrunken log2 fold change” value came out at 0.0744.

As for RRIRTRPPRLPRPRPRPHQRPRP, the “shrunken log2 fold change” value is -0.0533. With RRIRERPPRLPRPRPRPNREPRP, the “shrunken log2 fold change” value is -0.0209. Turning to RRIRSRPPRLPRPRPRPMWLPRP, the “shrunken log2 fold change” value worked out at 0.0415.

RRIRMRPPRLPRPRPRPGEIPRP: the “shrunken log2 fold change” value was determined as 0.995. As for RRIRNRPPRLPRPRPRPHAMPRP, the “shrunken log2 fold change” value was -0.316. With RRIRARPPRLPRPRPRPCKRPRP, the “shrunken log2 fold change” value is -0.0822. Take RRIRGRPPRLPRPRPRPLNPPRP: the “shrunken log2 fold change” value amounted to 0.215. As to RRIRRRPPRLPRPRPRPLTIPRP, the “shrunken log2 fold change” value is -0.133.

Consider RRIRFRPPRLPRPRPRPWMRPRP, for which the “shrunken log2 fold change” value was 0.495. RRIRYRPPRLPRPRPRPQVCPRP: the “shrunken log2 fold change” value was -0.00133. In the case of RRIRQRPPRLPRPRPRPTDIPRP, the “shrunken log2 fold change” value is -0.0659. For the sequence RRIRERPPRLPRPRPRPYFIPRP, the “shrunken log2 fold change” value is -1.17. Take RRIRLRPPRLPRPRPRPQKCPRP: the “shrunken log2 fold change” value is -0.222. For RRIRFRPPRLPRPRPRPIGAPRP the value was 0.064. Take RRIRQRPPRLPRPRPRPPHFPRP: the “shrunken log2 fold change” value is 0.00908. With RRIRTRPPRLPRPRPRPGILPRP, the “shrunken log2 fold change” value is -0.0375. For the sequence RRIRARPPRLPRPRPRPKMSPRP, the “shrunken log2 fold change” value worked out at 0.126. For RRIRLRPPRLPRPRPRPAVIPRP the value was -0.339; for RRIRPRPPRLPRPRPRPHIMPRP, -0.663. With RRIRNRPPRLPRPRPRPLPDPRP the figure was -0.0552; with RRIRGRPPRLPRPRPRPDSVPRP, 0.704; with RRIRIRPPRLPRPRPRPLWAPRP, -0.174. Take RRIRNRPPRLPRPRPRPECTPRP: the “shrunken log2 fold change” value is 0.00282.

Consider RRIRERPPRLPRPRPRPRDCPRP, for which the “shrunken log2 fold change” value was 0.112.
